assay: soluble on expression in E. coli; label from the status in PepcDB or PDB records

Sequence	soluble on expression in E. coli
MGSDKIHHHHHHMSRNSPLEISRTLVAALSTQMFRYYEDRIPQDASVLVVSNHRSFMDALILMAALSSPIRFACHHYMGQVPVMREIVTGQLGCFPLEETQNRQQSFFSQSQLLLQSKQMVGVFPEGTAPMVKSTQPNQVGEFQRGFAHLALRADVQDLAILPIAIASLEEVNTNGFPLRLLSVFDPSEPLFNQAGWHPLVIYRRVAVLIGRPYWITPQHQKKYHGKQARTVVAELTEHCHGEISHLLRQGCY	not soluble
MAHHHHHHMTTLEKRIEEASGLIYRARAEETPDGNPLVAARNYIAAMEIITNICKDVSPESDNDKDRFFLFQVRQRMEVYQKRVQLLLSVAAEMGLDDIPEHVGNTVLDSPPHAGDRTGAADFENPAVPSTAPTSVPPPACADGFGENVPPLEYFFSQQPQAPTRPHPEETESVEALLGQFSFDEVKKE	soluble
MSLKPVMIIQFSASEGPGHFGDFLAGEHIPFQVLRMDRSDPLPAEIRDCSGLAMMGGPMSANDDLPWMPTLLALIRDAVAQRVPVIGHCLGGQLLAKAMGGEVTDSPHAEIGWVRAWPQHVPQALEWLGTWDELELFEWHYQTFSIPPGAVHILRSEHCANQAYVLDDLHIGFQCHIEMQAHMVREWCSISPEELKGGAEADEGHHHHHH	not soluble
MSTVTITDLARENVRNLTPYQSARRLGGNGDVWLNANEYPTAVEFQLTQQTLNRYPECQPKAVIENYAQYAGVKPEQVLVSRGADEGIELLIRAFCEPGKDAILYCPPTYGMYSVSAETIGVECRTVPTLDNWQLDLQGISDKLDGVKVVYVCSPNNPTGQLINPQDFRTLLELTRGKAIVVADEAYIEFCPQASLAGWLAEYPHLAILRTLSKAFALAGLRCGFTLANEEVINLLMKVIAPYPLSTPVADIAAQALSPQGIVAMRERVAQIIAEREYLIAALKEIPCVEQVFDSETNYILARFKASSAVFKSLWDQGIILRDQNKQPSLSGCLRITVGTREESQRVIDALRAEQV	soluble
MSTIHTPLTYNEINGKPFGLDYELAKQFADYLGVKLKVTVRQNISQLFDDLDNGNADLLAAGLVYNSERVKNYQPGPTYYSVSQQLVYKVGQYRPRTLGNLTAEQLTVAPGHVVVNDLQTLKETKFPELSWKVDDKKGSAELMEDVIEGKLDYTIADSVAISLFQRVHPELAVALDITDEQPVTWFSPLDGDNTLSAALLDFFNEMNEDGTLARIEEKYLGHGDDFDYVDTRTFLRAVDAVLPQLKPLFEKYAEEIDWRLLAAIAYQESHWDAQATSPTGVRGMMMLTKNTAQSLGITDRTDAEQSISGGVRYLQDMMSKVPESVPENERIWFALAAYNMGYAHMLDARALTAKTKGNPDSWADVKQRLPLLSQKPYYSKLTYGYARGHEAYAYVENIRKYQISLVGYLQEKEKQATEAAMQLAQDYPAVSPTELGKEKFPFLSFLSQSSSNYLTHSPSLLFSRKGSEEKQNLEHHHHHH	soluble
VQLQQSGPVLVKPGGSVKMSCKASEYTLTSYLFQWVKQKSGQGLEWIGYIYPYNGGTRYNEKFRGKATLTSDKSSNTAYLELSSLTSEDSAVYYCARSSMSDPGANWGPGTLVTVSSASTKGPSVFPLAPSSKSTSGGTAALGCLVKDYFPEPVTVSWNSGALTSGVHTFPAVLQSSGLYSLSSVVTVPSSSLGTQTYICNVNHKPSNTKVDKKVEP	soluble
MIFYFSGTGNSKWIANQLSKEQQEDLFFIPDAWKNDTWEFSLREDEKIGFVFPVYSWAPPVIVQEFIRKLVLKGYQQQYLFFVCSCGDDTGLTRQVMEKALAARGWRCNAGFSVIMPNNYVLFLGFDVDSKELEKKKLAEAVPALEKVSRLITGRETVFACKEGSLPFIKTRIINPLFVRYQMSPKPFHATSECIGCKRCEKSCPVGNITMKERRPVWGKNCTACLACYHVCPQHAVQYGKKTKGKGHYFNPDSAY	not soluble
MGDRFDSARHRVEAAAIKAFAGEFDPQPFHLDEEAARHSLFGGLAASGWHTAAITMRLLVTSGLPLAQGIIGAGTELSWPNPTRPGDELHVETTVLAITPSKSRPDRAIVTCQSDTLNQRGEVVQRSTAKVVVFRRPLEHHHHHH	not soluble
MNGIFIEDKRLGIRLPHLDKPWEDYSPNEQEAILLEWETIRGLIPDRIAELEREINKKQDELGQEADFARSCQLNADIAELASIVNDLWIWYRIVPSVSSRHGKKRVEKP	not soluble
MPSSRGVSLSISLAEAEVAPGGMLRGEVKVKVDSSHKNGIVYEAIRLVFLAVEKSCVWDDQGEFDELLNKYTSSRVYLDRHVTLTGFKTQSEDAETTAQVREEMLFLQHCATPYAAVAPTKPKKDAYRHYTREELLHGAIQMAATTKYTTGGVVAPDTNDSTNICMGSQKPVQAGDGPRSAAAAPRGGATEVEFPVLMPGTHRFPFLFRLPPWLPPSFYYSFVGAKGQLQYSASATMLFPGNGAGSWWFKICKDTSGAMRDMGKTFNRAAGSGAPSGKRARKRPGRDESGEGVIDLDDDEVGERMNRRLTSMPVYGPSDLTTAIHFDVLSVMPRRQLVAEYYQIDTHNLHQRPTNAPREAENAVSSSSNRNGAKKLQRRVDKSNDVGDVKPSGVSTGLLEHHEDTHLALSALYQTFRCGWLGNMCCLQPQNAIEAEVLVVGARTVLLADDVGALQALGVRPPITSDAPQLGGPALHAPDIVPSPDMAVAAPNTPWPVGGITLRVRVRNYCPTHTVECVRVELKVMLEIFKSLKTPHTFPGISYSSFDYTIPIPPGNQALFDVRLGLAPRFRRHETDSESLLPPPGVRTANMTSNTFLQVSFPGMYTYVEEEEEAKGVVIMAETVNLNDEVLELPVRYS	not soluble
MSLADPADISAASRSVVRVVIIESDGDRANLITHGTGFAVTPNLIVTNAHVVEELRRDDTLIAGVVPAEGRNGFPAKLVAYSPGNDLALLRIEGGGSITPITLFPGAPGDGSEVYAVGYPGNVDLAQGLSMADLVTPQAAVKTRGYLSGGRSSRSFDTLLHTAPLGSGNSGGPLLDSCGRVIGVNSFGTVSDNSTDSAFYFAISMRELSAFLRRANVDAHTSGLPCRSIADLDRAEAERAAGEQARLAAQTAAQADAKQRAMDKARRDAELAILSERDNGEGHHHHHH	soluble
SSSSLVEAAAGLPEKGLMVCKWLGTGSAGYGGYKASEYFFPIDNEEFRENLEDWESTLQSWEKLKNYLEGMHKGPVGNQTRTH	soluble
MTDDNDNKNTELPMSASEVTAGTKIVRRAANQKPSRVVADICVVGSGAAGMSAAIEGARAGRKVVLVDSLPALGGQAVNSIIGTFCGLFSNGSDGYQFTHGIADDLLGDLGAQENALFYRRGPHTTVVYYDEVALGRWVEKAMLAAGVTVIVGAVMRNVRVAGRRVTGIDLSTRYGDVEVEANGFVDASGDAALVWQAGFACREPDDGPIYGTQMLIVENIDESKVPSREELPARMREKAGDYGLLRREGLSFVIPGRGVAAMNMTHVETPLEPLEASRKGIEGKDQADRAFAFLRNEFPACFGKARIRAYGLPGIRQTRWIVGRQQLSVDDVRAGTKFEDAIGRTAWPIELHDHGSGHHWHIFDKDHVHYVPFGSLTPQEAENIVAAGRCIDADKAALSSVRVMGPCMAMGAAAAHALDLAGSGSVHQIDIDALKWRVRDNLERTDLEHHHHHH	not soluble
MSLRSDLINALYDENQKYDVCGIISAEGKIYPLGSDTKVLSTIFELFSRPIINKIAEKHGYIVEEPKQQNHYPDFTLYKPSEPNKKIAIDIKTTYTNKENEKIKFTLGGYTSFIRNNTKNIVYPFDQYIAHWIIGYVYTRVATRKSSLKTYNINELNEIPKPYKGVKVFLQDKWVIAGDLAGSGNTTNIGSIHAHYKDFVEGKGIFDSEDEFLDYWRNYERTSQLRNDKYNNISEYRNWIYRGRK	soluble
GPGSGSDERVVALKDITLAESKHSNAATTKQGASTTNCLQRSNLPPPFAPVRRGEFVMIRGPSGGGKTTLLNIIGSIDSCTEGNIELNGRIIDKDTKESVLADIRLKNIGFVFQTFNLIATMTAAENVELPMTLLGTMSTKAMRLRSRQLLTLVGLRNRINHLPSELSGGEQQRVTIARSLANNPSILLLDEPTGDLDTANTIEVMDLLMRINRRTKTTCIMVTHNPDIECYADRILYVSDGRFAKEVFNALPMCLDLENYTEYLAAKERAITGFAGVGDVEDDSEPRATAAMAECIG	not soluble
AIAAQDENKEQPKKDWKTIISPQYWKNSVSLLFTDAEQGNFVLPSLQSVSFSKASETIGKQVKESAKELGALFSAEECPSQQGSKEAPWEVLTAREKPFAKEIEERILKITSDCYRSRKEREEIFLSLSSLKDSHFRWSNNSSEKMKQAMAALEKDPILPDLRAGLVPKRMSEENFWRQYFYLVEKVKKSVVTNSQFGLFDEWESWSDTTSHPTLEHSQENSDLDNEVDQVLNDVLE	soluble
MGSDKIHHHHHHARTILREELAQNSINKYSVKQYCQASGVGRASFYSTYNGMPDLFCNTLQFEIRKHFQNYSDCNSRKLVYALLKEIGDHRIYYTNIYRLTNKNTSKIHICHQINHAFFTEMQKHLQNSNCSNKQIQSMTNIIFSRVVSWVAHNCKEKVLDVYVDLEYVLPSN	not soluble
MAMWVFGYGSLIWKTGFPFDESLPGFIKGYRRVFHQGSTDHRGTPDFPGRTVTLEAAHEEHLEVREKQYDQKEYLDFFTDSNASEPAVAGVMVYIASPDKKSNNNYLGPAPLEDIAKQIVKAKGPSGPNRDYLFNLEEALAQLGFKDKHVTDLANQVRHILSESEELDIDATAATANNV	soluble
MKPRPQSDAVDNEGPTPLSKGRRHLAMRLDDAWLGFQTRLAIRRGRVETVIPYTGYGSTSWVRVLARIVRSDPRDAAGHTNPLQESMRGWRNFTSAPVAHASVQVTIDGTVHDVVADRGGVVDARIPVALDAGWHTITLRSGESETVEAPVEIVADDAVFGVVSDIDDTVMVTALPRPFLAAWNTFVLNEHARTPTPGMAVLYERIARTAPSAPVLYLSTGAWNVAPTLSRFLSRNLYPAGPKLLTDWGPTPDRWFRSGQEHKRTSLERLAEEFPNIKWLLVGDDGQHDEAIYSEFAQRHPASVRAIAIRQLSAGEAVLAGGRSKSGGQPTPGVPWIYAPDGAGMSAQLEELGIIRLEHHHHHH	not soluble
PAGHADDAMHSYFTFVAPDRGLAKVAAAQAAALRPFLAGTPLADLPLLSSVSPLKAGGRAGPDHYTDVPAGPLSMRHVADLHMFPNELRALVLTGADLREWLEMAAGVFLSPAPAGACDMLLDTSVPGHNFDSLYGLTYEIDPRAPPRYDIGGRLIADENRRIGSLCHNGTPVDDRQKFVVALNNYRANGGGHFLMLDRGEPVPLPSLRIQSALHDYLSGRLPADPLEQAPHPWRLAPL	not soluble
MRAFYSTTEEISALFAKQQEQLKTMQRTLEDEDNCDNTSLDIDLNPINRSPNRANTQGDKRATSHLNFAARASSSTSGQRSTRNEVVDTSCEDADATQKHDCEIMSQEGQNTQEAEYPSSDKVAKGGFGSDIEGIGTAPTSGTDPVGTEQVNETQSPGNDYERNDHLRKSIILAGDTMQIDCETQVHESVQIEGAVLLLRNPNDRRDTQDIEGVGTIGTSDLLASEVAGSWANSTNPSVHGENETERSREDEESQTQKIKEVTIVQDSAGQIGESQTKPTSPGVLVTNKDDAERGVINEPVGITDQGKIKHGTRSDSETESCSDSDDDHEKEKHNPVSDSDTEGSDMNDDKGSLSSDPDTERSHEVDGDQKKQVDTMDEDDKAT	soluble
MSLSFSMKIKNIPYYVATRVVKRIQSWLGLNTLGARAIVTNAEGHVLLVKHTYQPHWYLPGGGVKKGESTKAAVIRELHEEVGLVVAEQDVILFGIYHHKYLGVNDYPVIYIVKNFTSHVTHSGEIEQIGWFSLDALPEMVSPGTKRRLGEYFDNNPISEKWEGHHHHHH	soluble
MKPILALLSLLALPVMAAEPTLYGRYENIKVLEIGQTFKAKMDTGALTASLSAKDIELFQRDGDDWVRFRLATKGADDKVYEHKVSRISKIKGRAEGDDEDDEGINPAKRPVVDLELCLGNKKRTVEVNLVDRSHFNFPLLIGAKALREFGAAINPARRYTADEPDC	not soluble

— the DeepSol protein solubility set
